As usually defined, the stoichiometry N is a count of units in the complex or per binding partner. What is called Kd is a measure of binding affinity in units of concentration. Low values mean higher affinity, high ones lower affinity.

Bounds are passed on as bounds.

Experiment [1] has as its target 22-mer tyrosine-sulfated biotinylated N-terminal CCR5 peptide. Briefly: SPR; qualitative; ~5000 RU of biotinylated CCR5 peptide on an SA chip; 100 nM gp120 proteins injected at 10 µl/min, alone or pre-incubated with 2-fold molar excess of sCD4; 25°C; HBS-EP buffer; compared at time = 300 s.
In experiment [2] the target is wild-type SF162 gp140 (cleavage-defective) (HIV-1 SF162). Briefly: not stated; oligomeric state of the purified glycoproteins; method not given.
The next experiment concerns the target soluble CD4 (sCD4) (UniProt P01730). Briefly: SPR; BIAcore 3000; ~200 RU of sCD4 or mAb immobilised directly on a CM5 chip via amine coupling; varying concentrations of gp120 injected at 80 µl/min; 25°C; HBS-EP buffer; 1:1 Langmuir fit. (In general: Surface plasmon resonance follows binding to a sensor surface in real time, without labels.)

For “gp120+sCD4 (sCD4-liganded, wild-type gp120) (from UniProt P01730) (complex)”, the fold better binding than gp120 in experiment [1] was over 10 fold.

“wild-type SF162 gp140 (cleavage-defective) (natural protein)” displayed a stoichiometry N in experiment [2] of 3.

In turn, wild-type SF162 gp120 (natural protein) returned a Kd with soluble CD4 (sCD4) of 24.5 nM.

The values above are taken from PMC3797752.
